In patent US20250049914A1, “STEROID ACID-PEPTIDE BASED INTRACELLULAR CARGO DELIVERY” (DEFENCE THERAPEUTICS INC., priority 2021, published 2025):
“Also recorded” adds a separate entry of the source. Where a SMILES comes first, the peptide text is derived from it. The star is where a group is joined. Cholyl = C[C@H](CCC(=O)*)[C@H]1CC[C@H]2[C@@H]3[C@H](O)C[C@@H]4C[C@H](O)CC[C@]4(C)[C@H]3C[C@H](O)[C@]12C

Legend:
EL4 cells = assay: Cytochrome C cytosolic delivery, cell death (annexin V binding) by flow cytometry; type: cell-based
Procedure: Cytochrome C is a protein that is normally entrapped in the mitochondria but its release into the cytosol in known to induce cell death. An experiment was performed in which EL4 cells were incubated with recombinant cytochrome C either alone (FIG. 8A) or mixed with CA-SV40 NLS (47 μM) (FIG. 8B). Successful delivery of cytochrome C to the cytosol in its active form was assessed by measuring cell death (annexin V binding) via flow cytometry.

[1] = Intrinsic tryptophan fluorescence (ITF) after thermal stress; type: physicochemical; details: 80° C., ten minutes, 0.8 mg/mL in PBS
Procedure: An Applied Photophysics (Leatherhead, Surrey, UK) Chirascan™ Q100 circular dichroism (CD) spectrometer was used for intrinsic tryptophan fluorescence (ITF) analysis and a VWR digital heatblock (Radnor, PA) was used for dry block temperature incubations. The Chirascan™ Q100 autosampler rack cooling system was used for all 4° C. incubations. Data was analyzed using MATLAB™ software (Natick, MA). Briefly, samples were removed from storage at −20° C. and allowed to equilibrate to room temperature. Samples were then diluted to 0.8 mg/mL in PBS from stock concentrations in the range of 4 to 5 mg/mL. Diluted samples were then analyzed for ITF without exposure to thermal stress (Native) or after ten minutes of thermal stress by dry block incubation. An aliquot of each diluted sample was incubated at 4° C., a second aliquot was incubated at 37° C., while a third aliquot was incubated at 80° C. BSA, diluted to 0.8 mg/mL, was included with the samples under each of the thermal conditions described above. All samples were re-equilibrated to room temperature after incubation. ITF Analysis was performed in […] by excitation at 280 nm with an emission scan range of 200-600 nm with a bandwidth of 1.0 nm, a Time-per point of 1 s, and a Step of 0.5. The triplicate spectra were blank subtracted, averaged, and converted from units of mdeg to relative fluorescence intensity using MATLAB software. […]

DC2.4 cells = assay: eGFP-Gal3 assessment of damaged endosomes by microscopy; type: cell-based, murine; details: 0.1 mg/mL cargo, 3 h, 37° C.
Procedure: For this assay, 15×10^3 DC2.4 cells were seeded on a sterile cover slide in a 24-well plate. Two days following transfection of DC2.4 cells with the eGFP-hGal3 mammalian expression vector, 0.1 mg/mL of cargo was added to cells then incubated for 3 h at 37° C. The cells were then washed twice to remove excess protein prior to being mounted on a slide. The slides were viewed by fluorescent microscopy (Nikon, Eclipse™ Ti2-U) and the results analyzed using the ImageJ™ software.
A GFP-galectin-3 (GFP-Gal3) based detection system was utilized to explore the effect on endosomal membranes following intracellular delivery of steroid acid-peptide-conjugated cargoes. […] When expressed under normal conditions, Gal3 is evenly distributed across the cytosol but disruption of endosomal membranes allows Gal3 to access and bind luminal glycoproteins. We thus transiently transfected the murine dendritic cell line DC2.4 with a construct expressing Gal3 fused to enhanced green fluorescent protein (eGFP-Gal3). Two days later, DC2.4 cells were incubated with 0.1 mg/mL of either unconjugated OVA cargo or [CA-SV40]-OVA conjugated cargo for 3 h at 37° C. and the cells were observed by fluorescent microscopy.

WT MSCs = assay: Antigen cross-presentation assay on wild-type MSCs with B3Z cells; type: cell-based, mouse; details: WT MSCs pulsed with OVA with or without conjugate
Procedure: In order to generate Bone marrow (BM)-derived mouse MSCs, the femurs of 6-8-week-old female Balb/c or C57BL/6 mice were isolated and flushed with Alpha Modification of Eagle's Medium (AMEM) supplemented with 10% FBS and 50 U/mL Penicillin-Streptomycin in a 10 cm cell culture dish, then incubated at 37° C. Two days later, non-adherent cells were removed and the media replaced every 3 to 4 days until plastic-adherent cells reached 80% confluency. The generated cells were detached using 0.05% trypsin and expanded until a uniform MSC population was obtained. The generated MSCs were validated for their innate phenotype by flow-cytometry for the expression of CD44, CD45, CD73, and CD90. The cells were frozen in liquid nitrogen until use.
To assess cross-presentation assay, 25×10^3 cells MSCs were seeded per well in 24-well plate then pulsed with steroid acid peptide-conjugated for 6 h admixed with OVA. At the end of the pulsing period, the cells were washed to remove excess antigen then 5×10^4 B3Z cells. The cells were incubated for 17-19 hours prior to their lysis and incubation for another 4-6 hours at 37° C. with a CPRG solution. The optical density signal was detected at wavelength 570 using a SynergyH1™ microplate reader (Biotek, Winooski, VT, United States).
To determine whether a similar effect occurs in wild type (WT) (i.e., non-engineered) MSCs, BM-derived MSCs (Example 1) were used instead in the same cross presentation assay with B3Z responder cells.

[2] = test system: primary bone marrow-derived DCs; assay: DQ OVA intracellular degradation/processing, flow cytometry; type: cell-based, mouse; details: primary BMDCs, six hours
Procedure: Mouse bone marrow derived DCs (BMDCs) were generated by flushing the whole marrow from mouse femurs using RPMI™ 1640 supplemented with 10% fetal bovine serum (FBS), 50 U/mL Penicillin-Streptomycin, 2 mM L-glutamine, 10 mM HEPES, 1% MEM Non-essential Amino Acids, 1 mM Sodium Pyruvate, 0.5 mM beta-mercaptoethanol. Following red blood cell lysis, cells were then cultured in media supplemented with 50 ng/mL murine recombinant GM-CSF. The media was changed on days 2, 4, 6 and 8. On day 9, the media was replaced to include recombinant murine GM-CSF and LPS from Escherichia coli 0111 (1 ng/mL) to stimulate DC maturation. Mature DCs were assessed by flow cytometry for their surface expression of CD3, CD19, NK1.1, CD11c, CD80, CD86, and I-A^b. To evaluate OVA degradation/processing, cells were incubated with 10 µg/mL DQ™ OVA (with or without steroid acid-peptide modification) at 37° C. 30 minutes later, cells were washed, and regular media was added. […] Fluorescence was monitored by analyzing the cells by flow cytometry. […] Briefly, while a strong fluorescence quenching effect is observed when the DQ™ OVA substrate remains intact, hydrolysis of DQ™ OVA into single dye-labeled peptides by proteases relieves this quenching, thereby producing brightly fluorescent products. […] Cells were then collected and fluorescence was monitored by flow cytometry.

Molecule: cytochrome C
- cell death, cytochrome C alone (EL4 cells; recombinant cytochrome C alone): did not trigger cell death

Molecule: CC(C)[C@H](NC(=O)[C@H](CCCCN)NC(=O)[C@H](CCCNC(=N)N)NC(=O)[C@H](CCCCN)NC(=O)[C@H](CCCCN)NC(=O)[C@H](CCCCN)NC(=O)[C@@H]1CCCN1C(=O)CNC(=O)[C@H](Cc1ccc(O)cc1)NC(=O)CNC(=O)[C@H](CS)NC(=O)CC[C@@H](C)[C@H]1CC[C@H]2[C@@H]3[C@H](O)C[C@@H]4C[C@H](O)CC[C@]4(C)[C@H]3C[C@H](O)[C@]12C)C(=O)NCC(=O)NCC(=O)O [CA-SV40] (Cholyl-CGYGPKKKRKVGG-OH)
- cell death, conjugate alone (EL4 cells; CA-SV40 NLS conjugate alone): 19%

B1: OVA: albumin from chicken egg white, unconjugated cargo/antigen (protein, UniProt P01012 2-386, looked up)
Ovalbumin: GSIGAASMEFCFDVFKELKVHHANENIFYCPIAIMSALAMVYLGAKDSTRTQINKVVRFDKLPGFGDSIEAQCGTSVNVHSSLRDILNQITKPNDVYSFSLASRLYAEERYPILPEYLQCVKELYRGGLEPINFQTAADQARELINSWVESQTNGIIRNVLQPSSVDSQTAMVLVNAIVFKGLWEKAFKDEDTQAMPFRVTEQESKPVQMMYQIGLFRVASMASEKMKILELPFASGTMSMLVLLPDEVSGLEQLESIINFEKLTEWTSSNVMEERKIKVYLPRMKMEEKYNLTSVLMAMGITDVFSSSANLSGISSAESLKISQAVHAAHAEINEAGREVVGSAEAGVDAASVSEEFRADHPFLFCIKHIATNAVLFFGRCVSP
- ITF spectral change after thermal stress (unfolding) [1]: complete denaturation
- eGFP-Gal3 marker pattern (endosomal membrane disruption) (DC2.4 cells): remained cytosolic; also recorded: diffuse cytosolic pattern
- OVA cross presentation by WT MSCs (B3Z) (WT MSCs): poorly cross presented

B2: DQ™ OVA: fluorogenic substrate DQ ovalbumin (protein, UniProt P01012 2-386, looked up)
Ovalbumin: B1 Ovalbumin
modifications: DQ fluorophore label
notes: fluorogenic substrate DQ ovalbumin
- DQ OVA fluorescence (intracellular degradation/processing) [2]: not observed

B3: [CA-SV40]-OVA: OVA covalently conjugated to CA-SV40 NLS moieties via SM(PEG)4 cross-linker (conjugate, UniProt P01012 2-386, looked up)
Ovalbumin: B1 Ovalbumin
modifications: CA-SV40 NLS peptides via SM(PEG)4
notes: OVA covalently conjugated to CA-SV40 NLS moieties via SM(PEG)4 cross-linker
- eGFP-Gal3 marker pattern (endosomal membrane disruption) (DC2.4 cells): became punctate; also recorded: punctate pattern

B4: 50×-cOVA: OVA conjugated with a 50× molar excess of CA-SV40 NLS, about eight moieties per OVA (conjugate, UniProt P01012 2-386, looked up)
Ovalbumin: B1 Ovalbumin
modifications: about eight CA-SV40 NLS conjugates
notes: OVA conjugated with a 50× molar excess of CA-SV40 NLS, about eight moieties per OVA
- ITF spectral change after thermal stress (unfolding) [1]: partial reduction in peak intensity

B5: [CA-SV40]-DQ™ OVA: DQ OVA conjugated with a molar excess of CA-SV40 NLS steroid acid-peptide moieties (conjugate, UniProt P01012 2-386, looked up)
Ovalbumin: B1 Ovalbumin
modifications: DQ fluorophore label; CA-SV40 NLS conjugates
notes: DQ OVA conjugated with a molar excess of CA-SV40 NLS steroid acid-peptide moieties
- DQ OVA fluorescence (intracellular degradation/processing) [2]: sharp increase
